Starred links: 1 amine or outer side, 2 acyl side, 3 side chain; linkers in the order of their positions; H or OH if unused. Non-standard residues stand in square brackets, D forms with d. No end group written: not given here. *: point of attachment. Phe(4-CH2SO3H) = N[C@@H](Cc1ccc(CS(=O)(=O)O)cc1)C(=O)O; C20 diacid = O=C(O)CCCCCCCCCCCCCCCCCCC(=O)*; sY = N[C@@H](Cc1ccc(OS(=O)(=O)O)cc1)C(=O)O; C18 diacid = O=C(O)CCCCCCCCCCCCCCCCC(=O)*; d(βAsp) = O=C(O)[C@@H](CC(=O)[*:2])N[*:1]; γGlu = O=C(O)[C@H](CCC(=O)[*:2])N[*:1]; Met(O2) = CS(=O)(=O)CC[C@H](N)C(=O)O; NMeF = CN[C@@H](Cc1ccccc1)C(=O)O; dNMeD = CN[C@H](CC(=O)O)C(=O)O; Nle = CCCC[C@H](N)C(=O)O; AEEA = NCCOCCOCC(=O)O
T1: human cholecystokinin-2 receptor (human, UniProt P32239 1-447)
T1 construct: whole, on cells; also called CCK-2R; CCK-2 receptor
T1 sequence (looked up): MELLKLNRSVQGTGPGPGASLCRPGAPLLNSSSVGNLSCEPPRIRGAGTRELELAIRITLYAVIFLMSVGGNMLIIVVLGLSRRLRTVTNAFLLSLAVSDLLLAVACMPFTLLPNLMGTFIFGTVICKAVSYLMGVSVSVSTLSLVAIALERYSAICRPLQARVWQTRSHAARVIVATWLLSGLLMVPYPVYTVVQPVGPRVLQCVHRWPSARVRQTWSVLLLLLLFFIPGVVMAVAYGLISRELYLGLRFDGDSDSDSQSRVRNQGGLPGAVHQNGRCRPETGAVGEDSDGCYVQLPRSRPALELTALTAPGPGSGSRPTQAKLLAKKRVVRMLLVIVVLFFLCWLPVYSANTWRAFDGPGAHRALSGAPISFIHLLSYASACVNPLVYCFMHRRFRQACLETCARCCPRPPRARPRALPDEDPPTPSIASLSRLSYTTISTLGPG

T2: human cholecystokinin-1 receptor (human, UniProt P32238 1-428)
T2 sequence (looked up): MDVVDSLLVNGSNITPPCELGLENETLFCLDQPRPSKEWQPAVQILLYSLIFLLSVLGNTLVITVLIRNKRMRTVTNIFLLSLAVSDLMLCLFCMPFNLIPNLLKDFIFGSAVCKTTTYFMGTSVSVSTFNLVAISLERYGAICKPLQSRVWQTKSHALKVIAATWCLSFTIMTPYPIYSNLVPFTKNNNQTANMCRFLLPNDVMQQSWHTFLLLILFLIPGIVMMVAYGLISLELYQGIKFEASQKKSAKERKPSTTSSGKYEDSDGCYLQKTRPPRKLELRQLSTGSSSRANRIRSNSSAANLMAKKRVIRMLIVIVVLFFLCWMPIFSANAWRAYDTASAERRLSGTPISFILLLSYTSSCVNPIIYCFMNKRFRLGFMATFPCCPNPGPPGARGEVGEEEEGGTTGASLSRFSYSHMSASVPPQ

B1: 2-[2-[2-[[2-[2-[2-[[(4S)-4-Carboxy-4-(19-carboxynonadecanoylamino)butanoyl]amino]ethoxy]ethoxy]acetyl]amino]ethoxy]ethoxy]acetyl-Glu-sTyr-Leu-Gly-Trp-Nle-DMeAsp … (peptide)
peptide: {C20 diacid-γGlu-AEEA-AEEA}-E[sY]LGW[Nle][dNMeD][NMeF]-NH2
SMILES: CCCC[C@H](NC(=O)[C@H](Cc1c[nH]c2ccccc12)NC(=O)CNC(=O)[C@H](CC(C)C)NC(=O)[C@H](Cc1ccc(OS(=O)(=O)O)cc1)NC(=O)[C@H](CCC(=O)O)NC(=O)COCCOCCNC(=O)COCCOCCNC(=O)CC[C@H](NC(=O)CCCCCCCCCCCCCCCCCCC(=O)O)C(=O)O)C(=O)N(C)[C@H](CC(=O)O)C(=O)N(C)[C@@H](Cc1ccccc1)C(N)=O
notes: X = Nle or Nal
B2: Asp-sTyr-Phe-Gly-Trp-Nle-DMeAsp-MePhe-amide (peptide)
peptide: D[sY]FGW[Nle][dNMeD][NMeF]-NH2
modifications: N-terminus assumed
SMILES: CCCC[C@H](NC(=O)[C@H](Cc1c[nH]c2ccccc12)NC(=O)CNC(=O)[C@H](Cc1ccccc1)NC(=O)[C@H](Cc1ccc(OS(=O)(=O)O)cc1)NC(=O)[C@@H](N)CC(=O)O)C(=O)N(C)[C@H](CC(=O)O)C(=O)N(C)[C@@H](Cc1ccccc1)C(N)=O
notes: X = Nle or Nal
B3: 2-[2-[2-[[2-[2-[2-[[(4S)-4-Carboxy-4-(17-carboxyheptadecanoylamino)butanoyl]amino]ethoxy]ethoxy]acetyl]amino]ethoxy]ethoxy]acetyl-DbAsp-Phe(4-sulfomethyl)-Nle-G … (peptide)
peptide: {C18 diacid-γGlu-AEEA-AEEA}-[d(βAsp)][Phe(4-CH2SO3H)][Nle]GW[Nle][dNMeD][NMeF]-NH2
SMILES: CCCC[C@H](NC(=O)[C@H](Cc1ccc(CS(=O)(=O)O)cc1)NC(=O)C[C@@H](NC(=O)COCCOCCNC(=O)COCCOCCNC(=O)CC[C@H](NC(=O)CCCCCCCCCCCCCCCCC(=O)O)C(=O)O)C(=O)O)C(=O)NCC(=O)N[C@@H](Cc1c[nH]c2ccccc12)C(=O)N[C@@H](CCCC)C(=O)N(C)[C@H](CC(=O)O)C(=O)N(C)[C@@H](Cc1ccccc1)C(N)=O

Legend:
[1] = molecular target: T1, human cholecystokinin-2 receptor; assay: SPA competition vs [125I]-CCK-8s, membranes
Experimental: CCK receptor binding assays were performed in 96-well Optiplates (Cat #6005290, PerkinElmer, Waltham, Mass., USA) in a total volume of 200 μl per well.
The plates were sealed and incubated in the dark at +22° C. for 2 hours on a IKA MTS plate shaker (IKA-Werke D-79219 Staufen) set at 300 rpm and thereafter centrifuged at 1500 rpm for 10 minutes in a Heraeus Multifuge 3s centrifuge. SPA bead light emission was measured in a TopCount NXT (PerkinElmer) for 2 min/well after a delay of 60 min.

[2] = molecular target: T1, human cholecystokinin-2 receptor; assay: cell-based or functional assay
[3] = molecular target: T2, human cholecystokinin-1 receptor; assay: cell-based or functional assay

Row | Binder | IC50 [1] [nM] | EC50 (CCK-2R) [2] [nM] | EC50 (CCK-1R) [3] [nM]
1 | {C18 diacid-γGlu-AEEA-AEEA}-D[sY]IGW[Nle][dNMeD][NMeF]-NH2 (X = Nle or Nal) | 340 | 210 | –
2 | {C18 diacid-γGlu-AEEA-AEEA}-D[sY]PGW[Nle][dNMeD][NMeF]-NH2 (X = Nle or Nal) | 5200 | 300 | –
3 | {C18 diacid-γGlu-AEEA-AEEA}-[dE][sY]LGW[Nle][dNMeD][NMeF]-NH2 (X = Nle or Nal) | 700 | 46 | –
4 | {C18 diacid-γGlu-AEEA-AEEA}-E[sY]LGW[Nle][dNMeD][NMeF]-NH2 (X = Nle or Nal) | 2400 | 62 | –
5 | B1 | 430 | 32 | –
6 | D[sY]RGW[Nle][dNMeD][NMeF]-NH2 (X = Nle or Nal) [Asp-sTyr-Arg-Gly-Trp-Nle-DMeAsp-MePhe-amide] | 1500 | 910 | –
7 | B2 | – | > 1000 | 0.22
8 | D[sY]LGW[Met(O2)][dNMeD][NMeF]-NH2 [Asp-sTyr-Leu-Gly-Trp-Met(O2)-DMeAsp-MePhe-amide] | – | > 1000 | 0.37
9 | B3 | – | – | 0.43

Reference: US20170008928A1, “NOVEL PEPTIDES AND PEPTIDE DERIVATIVES AND USES THEREOF” (Novo Nordisk A/S, priority 2015, published 2017)
